Assay in all cases: cryo-EM structure; purified SGIV virions; icosahedral capsid, block-based reconstruction at 3.5 Å; atomic model of one asymmetric unit
In test [1] the target is Singapore grouper iridovirus major capsid protein VP72 (Singapore grouper iridovirus (SGIV)).
Test [2] has as its target Singapore grouper iridovirus penton protein VP14 (Singapore grouper iridovirus (SGIV)).
The target in test [3] is Singapore grouper iridovirus zip protein VP38 (P1) (Singapore grouper iridovirus (SGIV)).

In general, stoichiometry N refers to a count of units in the complex or per binding partner.

For “Singapore grouper iridovirus major capsid protein VP72 (natural protein)”, the stoichiometry N in test [1] was determined as 3.

In test [2], “Singapore grouper iridovirus penton protein VP14 (natural protein)” came in with a stoichiometry N of 5. In test [3], “Singapore grouper iridovirus zip protein VP38 (P1) (natural protein)” came in with a stoichiometry N of 2.

Values taken from publication PMC10090177.
